These results are taken from patent EP4062934A1 (CentricsBio, Inc., dated 2022).

The assay addresses T1, CD300c antigen (UniProt Q08708 21-183, limits assumed).
T1 construct: also called CD300c protein
T1 sequence (looked up): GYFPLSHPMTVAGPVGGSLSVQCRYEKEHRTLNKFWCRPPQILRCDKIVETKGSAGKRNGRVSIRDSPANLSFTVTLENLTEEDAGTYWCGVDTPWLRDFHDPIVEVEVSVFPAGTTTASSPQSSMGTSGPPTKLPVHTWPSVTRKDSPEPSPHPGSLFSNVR
The assay is described as follows: binding ELISA, antigen coated, anti-Fc HRP detection.

B1: anti-CD300c monoclonal antibody CL8 (antibody, V domains shown)
VH: EVQLLESGGGLVQPGGSLRLSCAASGFTFSSYAMSWVRQAPGKGLEWVSAISGSGGSTYYADSVKGRFTISRNNSKNTLYLQMNSLRAEDTAVYYCARSGRYADLTSGGQGTLVTVSS
VL: QSVLTQPPSASGTPGQRVTISCSGSNSNIGNNYVSWYQQLPDTPPKLLIYDNNKRPSGVPDRFSGSKSGTSASLAISGLRSEDEADYYCSSYTSSSTVMFGGGTKLTVL
Usually EC50 stands for the concentration giving half of the maximal effect. Low readings indicate an effect from little substance, high ones a need for much substance. In the case of B1, the EC50 is 49.7 µg/mL.
